This note sets out measurements from IntAct's records for PubMed 11313760.

B1: Prelamin-A/C (Homo sapiens), P02545-1 (parent)
chain: METPSQRRATRSGAQASSTPLSPTRITRLQEKEDLQELNDRLAVYIDRVRSLETENAGLRLRITESEEVVSREVSGIKAAYEAELGDARKTLDSVAKERARLQLELSKVREEFKELKARNTKKEGDLIAAQARLKDLEALLNSKEAALSTALSEKRTLEGELHDLRGQVAKLEAALGEAKKQLQDEMLRRVDAENRLQTMKEELDFQKNIYSEELRETKRRHETRLVEIDNGKQREFESRLADALQELRAQHEDQVEQYKKELEKTYSAKLDNARQSAERNSNLVGAAHEELQQSRIRIDSLSAQLSQLQKQLAAKEAKLRDLEDSLARERDTSRRLLAEKEREMAEMRARMQQQLDEYQELLDIKLALDMEIHAYRKLLEGEEERLRLSPSPTSQRSRGRASSHSSQTQGGGSVTKKRKLESTESRSSFSQHARTSGRVAVEEVDEEGKFVRLRNKSNEDQSMGNWQIKRQNGDDPLLTYRFPPKFTLKAGQVVTIWAAGAGATHSPPTDLVWKAQNTWGCGNSLRTALINSTGEEVAMRKLVRSVTVVEDDEDEDGDDLLHHHHGSHCSSSGDPAEYNLRSRTVLCGTCGQPADKASASGSGAQVGGPISSGSSASSVTVTRSYRSVGGSGGGSFGDNLVTRSYLLGNSSPRTQSPQNCSIM
partner: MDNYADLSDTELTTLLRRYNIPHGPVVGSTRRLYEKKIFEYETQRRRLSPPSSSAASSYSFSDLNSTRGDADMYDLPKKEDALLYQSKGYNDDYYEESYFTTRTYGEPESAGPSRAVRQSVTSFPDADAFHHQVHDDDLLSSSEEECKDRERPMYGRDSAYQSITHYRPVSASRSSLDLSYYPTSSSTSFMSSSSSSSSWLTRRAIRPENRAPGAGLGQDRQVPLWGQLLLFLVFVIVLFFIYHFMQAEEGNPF

This experiment covers variants of B1. The conditions noted are these: with emd_human EMD.
Take R482Q: the “effect of a mutation on the interaction” value is “with no effect”.
